Data reported in patent US20230039487A1 (SHENZHEN FEIPENG BIOLOGICAL THERAPY, published 2023).
Numbering of substitutions follows the chain as printed.

B1: 5E2 (antibody, V domains shown)
VH: EVQLQQSGPELIKPGASVKMSCKASGYTFTSYVVHWVKQKPGQGLEWIGYIIPYNDDTKYNEKFKGKATLTSDKSSSTAYMELSSLTSEDSAVYYCARWDYDDGYFDYWGQGTTLTVSS
VL: DVVMTQTPLSLPVTLGDQASISCRSSQSLLHSNGNTYLHWYLQKPGQSPKLLIYKVSNRFSGVPDRFSGSGSGTDFTLKISRVEAEDLGVYFCSQITHIPFTFGSGTKLEIKR
notes: Mouse hybridoma antibody; It was amplified with primers for mouse IgG1 and detected with anti-mouse IgG in Embodiment 2; In Embodiment 5 it is called mVH-mVL ('a murine antibody before humanization'); also called BCMA antibody 5E2; mVH-mVL
B2: hu VH1-VL3 (antibody, V domains shown)
VH: B1 VH with E1Q, Q5V, P9A, L11V, I12K, K38R, K40A, T87R, S91T, L115V
VL: DIVMTQTPLSLSVTPGQPASISCKSSQSLLHSNGNTYLHWYLQKPGQPPQLLIYKVSNRFSGVPDRFSGSGSGTDFTLKISRVEAEDVGVYYCSQITHIPFTFGQGTKLEIKR
notes: Humanized 5E2; also called humanized BCMA antibody hu VH1-VL3
B3: hu VH1-VL1 (antibody, V domains shown)
VH: B1 VH with E1Q, Q5V, P9A, L11V, I12K, K38R, K40A, T87R, S91T, L115V
VL: DVVMTQSPLSLPVTLGQPASISCRSSQSLLHSNGNTYLHWYLQKPGQSPQLLIYKVSNRFSGVPDRFSGSGSGTDFTLKISRVEAEDVGVYFCSQITHIPFTFGQGTKLEIK
notes: Humanized 5E2; also called humanized BCMA antibody hu VH1-VL1
B4: hu VH2-VL1 (antibody, V domains shown)
VH: QVQLVQSGAEVKKPGASVKMSCKASGYTFTSYVVHWVRQAPGQGLEWIGYIIPYNDDTKYNEKFKGRVTLTSDKSTSTAYMELSSLRSEDTAVYYCARWDYDDGYFDYWGQGTTVTVSS
VL: B3 VL
notes: Humanized 5E2; also called humanized BCMA antibody hu VH2-VL1
B5: hu VH1-VL2 (antibody, V domains shown)
VH: B4 VH with R67K, V68A, T76S
VL: B3 VL with S7T, P12S, L15P, R24K
notes: Humanized 5E2; also called humanized BCMA antibody hu VH1-VL2
B6: R0317 (C11D5.3 BCMA mouse monoclonal antibody) (antibody, V domains shown)
VH: QIQLVQSGPELKKPGETVKISCKASGYTFTDYSINWVKRAPGKGLKWMGWINTETREPAYAYDFRGRFAFSLETSASTAYLQINNLKYEDTATYFCALDYSYAMDYWGQGTSVTVSS
VL: DIVLTQSPASLAMSLGKRATISCRASESVSVIGAHLIHWYQQKPGQPPKLLIYLASNLETGVPARFSGSGSGTDFTLTIDPVEEDDVAIYSCLQSRIFPRTFGGGTKLEIK

How the values were obtained:
[1] = target: T1, hu (human) BCMA ECD His (ACRO, BCA-H522y) (human, UniProt Q02223 1-54); test: ELISA; hu BCMA ECD His coated at 2 µg/mL, antibody in 3-fold dilutions
T1 construct: extracellular domain; Bought reagent (ACRO BCA-H522y); also called hu BCMA ECD His; not shown: His tag
T1 sequence (looked up): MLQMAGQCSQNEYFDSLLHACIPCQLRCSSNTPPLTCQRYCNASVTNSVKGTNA

[2] = target: T2, human BCMA (full-length, on cells) (human, UniProt Q02223 1-184); test: flow cytometry on K562, H929, RPMI8226 and K562-BCMA cells; PE goat anti-mouse IgG1
T2 construct: whole, on cells; also called K562-BCMA; CHO-BCMA
T2 sequence (looked up): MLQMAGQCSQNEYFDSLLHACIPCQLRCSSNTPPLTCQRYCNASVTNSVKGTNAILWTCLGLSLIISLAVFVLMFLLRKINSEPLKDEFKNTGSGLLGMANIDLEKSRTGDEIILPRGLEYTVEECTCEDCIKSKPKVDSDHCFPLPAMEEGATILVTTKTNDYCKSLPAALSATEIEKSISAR
Description: The specificity of BCMA antibody of the present disclosure is detected by FACs. A human BCMA full-length gene is synthesized in vitro, and a restriction enzyme cutting site is introduced, the synthesized human BCMA full-length gene is inserted into a lentiviral packaging plasmid vector (PCDHF) by double enzyme digestion, and lentiviral packaging (the specific operation steps are generally 4 plasmid lentiviral packaging steps, please refer to a section about lentiviral packaging on an official website of Jikai Gene in detail) is performed. The prepared lentivirus is infected with a K562 cell (ATCC, article number: CCL-243) to construct a K562-BCMA cell, and the cells are single-clone-picked and identified, to obtain a stable cell line K562-BCMA stably expressing BCMA. The 5E2 and 5F4 antibodies are respectively incubated with K562, H929, RPMI8226 and K562-BCMA cells for 30 min at 4° C., after that, it is washed twice with PBS, then a secondary antibody PE goat anti-mouse IgG1 (Biolegend, B288920) is added, and incubated at 4° C. for 30 min, after that, it is washed twice with PBS. Then, the detection is performed by using a Beckman Coulter flow cytometry. Detection results are shown in FIG. 5 below, and 5E2 and 5F4 may specifically bind to the cells of which the BCMA expression is positive.

[3] = target: T3, hBCMA ECD hFc (ACRO, BC7-H5254) (human, UniProt Q02223 1-54); test: ELISA; hBCMA ECD hFc coated at 2 µg/ml, antibody in 3-fold dilutions
T3 construct: extracellular domain; Bought reagent (ACRO BC7-H5254); also called R0341; not shown: human Fc
T3 sequence (looked up): T1 sequence (looked up)
Description: R0317 is a C11D5.3BCMA mouse monoclonal antibody, and its specific sequence and information may be found publicly.

[4] = target: T2, human BCMA (full-length, on cells); test: flow cytometry on K562-BCMA and CHO-BCMA cells; antibody from 30 µg/ml in 3-fold dilutions, APC anti-human IgG Fc
Description: A K562 cell (ATCC® CCL-243™) is a human chronic myeloid leukemia cell, and a CHO cell (ATCC® CRL-12023™) is a Chinese hamster ovary cell. The K562 cells and the CHO cells are respectively infected with lentiviruses containing a full-length sequence of human BCMA, and after being infected, a monoclone is picked, to obtain a K562-BCMA cell line and a CHO-BCMA cell line stably expressing BCMA, and the affinity (EC50) of the four humanized antibodies to K562-BCMA and CHO-BCMA is detected respectively. A specific detection method is as follows: cells are harvested, washed once with PBS, and resuspended with PBS according to 2E+5 cells/200 μL. The four BCMA humanized antibodies are diluted in a 3-fold gradient with 1% BSA, the concentration of the former gradient antibody is 3 times greater than that of the latter gradient antibody, (the initial concentration of the antibody is 30 μg/ml, and there is a total of 11 gradients), and then it is respectively incubated with the cells at 4° C. for 30 min. After that, it is incubated with APC anti-human IgG Fc Antibody (Biolegend, 409306) for 30 min at 4° C., washed twice with 1x PBS, and detected by a Beckman Coulter (model number: CytoFLEX) flow cytometry. […] The affinity EC₅₀ of hu VH1VL2 to K562-BCMA is slightly weaker. However, the affinity EC₅₀ of hu VH1-VL2 and CHO-BCMA is at the same level as the other three humanized antibodies, and the expression abundance of the four humanized antibodies and the murine BCMA antibody binding to CHO-BCMA is in the order of m VH-m VL, hu VH1-VL1, hu VH2-VL1, hu VH1-VL2, and hu VH1-VL3 from high to low.

[5] = target: T1, hu (human) BCMA ECD His (ACRO, …); test: ELISA; hu BCMA ECD His coated at 2 µg/mL, antibody from 20 µg/mL in 3-fold dilutions
Description: Herein, mVH-mVL is a murine BCMA antibody, and is a murine antibody before humanization.

[6] = target: T2, human BCMA (full-length, on cells); test: flow cytometry on RPMI8226 and H929 myeloma cells; antibody from 10 µg/ml in 3-fold dilutions, PE anti-mouse IgG
Experimental: A RPMI8226 cell (ATCC® CRM-CCL-155™) is a human multiple myeloma peripheral blood B lymphocyte, and a H929 cell (ATCC® CRL-9068™) is a human multiple myeloma bone marrow B lymphocyte. A specific detection method is as follows: cells are harvested, washed with PBS once, and then resuspend with PBS according to 2E+5 cells/200 μl. The three antibodies are diluted in a gradient (the initial concentration of the antibody is 10 μg/ml, it is diluted with 1% BSA in 3-fold, and there is a total of 9 gradients), and then incubated with the cells for 30 min at 4° C. After that, it is incubated with a PE-labeled anti-mouse IgG secondary antibody (Biolegend, B288920), washed twice, and detected by a Beckman Coulter (model number: CytoFLEX) flow cytometry.

Binder | binding result [1] | binding result [2] | binding result [3] | binding result [4] | binding result [5] | binding result [6]
B1 | binds | binds | binds |  |  | 
B2 |  |  |  | binds | binds | 
B3 |  |  |  | binds | binds | 
B4 |  |  |  | binds | binds | 
B5 |  |  |  | binds | binds | 
B6 |  |  | binds |  |  | binds
